Assay results published in EP4438624A1 (LAVA Therapeutics N.V., dated 2024).

T1: recombinant purified human Nectin-4-Fc fusion protein (human, UniProt Q96NY8 32-349)
T1 construct: Bought ('Aero Biosystems' as printed); not shown: Fc part of the bought fusion protein; captured by anti-human IgG Fc sensors
T1 sequence: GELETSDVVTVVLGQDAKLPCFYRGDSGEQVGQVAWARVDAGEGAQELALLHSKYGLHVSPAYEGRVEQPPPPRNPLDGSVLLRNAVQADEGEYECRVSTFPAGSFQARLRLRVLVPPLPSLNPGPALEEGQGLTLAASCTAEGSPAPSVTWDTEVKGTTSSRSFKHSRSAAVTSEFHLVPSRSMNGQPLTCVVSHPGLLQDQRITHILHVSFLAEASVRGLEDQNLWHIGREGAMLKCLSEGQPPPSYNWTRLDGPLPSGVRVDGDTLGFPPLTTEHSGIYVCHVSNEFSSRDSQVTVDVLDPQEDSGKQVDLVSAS

T2: mouse Nectin-4 (mouse, UniProt Q8R007 31-508)
T2 construct: whole, on cells; Transiently expressed on CHO-K1 cells; also called murine Nectin-4
T2 sequence (looked up): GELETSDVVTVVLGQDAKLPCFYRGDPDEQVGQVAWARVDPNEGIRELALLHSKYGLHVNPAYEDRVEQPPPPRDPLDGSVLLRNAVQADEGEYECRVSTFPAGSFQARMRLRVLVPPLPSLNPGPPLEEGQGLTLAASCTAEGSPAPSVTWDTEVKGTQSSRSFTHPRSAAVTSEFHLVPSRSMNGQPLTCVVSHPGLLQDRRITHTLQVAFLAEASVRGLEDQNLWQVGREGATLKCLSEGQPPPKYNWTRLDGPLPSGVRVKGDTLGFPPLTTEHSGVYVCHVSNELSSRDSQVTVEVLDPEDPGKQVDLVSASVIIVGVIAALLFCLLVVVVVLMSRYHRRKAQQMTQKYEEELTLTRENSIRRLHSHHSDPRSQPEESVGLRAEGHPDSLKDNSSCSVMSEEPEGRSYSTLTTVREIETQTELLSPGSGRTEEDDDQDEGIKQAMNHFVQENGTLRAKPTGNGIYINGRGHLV

T3: cynomolgus monkey Nectin-4 (cynomolgus monkey, UniProt A0A2K5WES1 32-510)
T3 construct: whole, on cells; Transiently expressed on CHO-K1 cells; also called cynomolgus Nectin-4
T3 sequence: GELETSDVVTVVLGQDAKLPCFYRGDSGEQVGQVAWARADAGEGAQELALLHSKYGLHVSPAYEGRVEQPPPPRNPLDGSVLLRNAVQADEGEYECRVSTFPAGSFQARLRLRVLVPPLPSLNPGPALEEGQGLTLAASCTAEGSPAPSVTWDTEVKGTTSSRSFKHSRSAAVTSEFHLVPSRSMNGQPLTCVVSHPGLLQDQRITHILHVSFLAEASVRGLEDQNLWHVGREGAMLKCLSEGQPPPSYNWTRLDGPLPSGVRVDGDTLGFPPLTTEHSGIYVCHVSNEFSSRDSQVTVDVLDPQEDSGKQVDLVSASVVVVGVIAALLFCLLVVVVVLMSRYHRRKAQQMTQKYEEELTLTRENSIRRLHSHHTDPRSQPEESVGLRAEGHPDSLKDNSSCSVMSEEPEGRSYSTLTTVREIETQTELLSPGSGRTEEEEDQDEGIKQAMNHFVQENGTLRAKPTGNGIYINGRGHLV

T4: human Nectin-4 (on cells) (human, UniProt Q96NY8 32-510)
T4 construct: also called PVRL4; NECT4_HUMAN
T4 sequence: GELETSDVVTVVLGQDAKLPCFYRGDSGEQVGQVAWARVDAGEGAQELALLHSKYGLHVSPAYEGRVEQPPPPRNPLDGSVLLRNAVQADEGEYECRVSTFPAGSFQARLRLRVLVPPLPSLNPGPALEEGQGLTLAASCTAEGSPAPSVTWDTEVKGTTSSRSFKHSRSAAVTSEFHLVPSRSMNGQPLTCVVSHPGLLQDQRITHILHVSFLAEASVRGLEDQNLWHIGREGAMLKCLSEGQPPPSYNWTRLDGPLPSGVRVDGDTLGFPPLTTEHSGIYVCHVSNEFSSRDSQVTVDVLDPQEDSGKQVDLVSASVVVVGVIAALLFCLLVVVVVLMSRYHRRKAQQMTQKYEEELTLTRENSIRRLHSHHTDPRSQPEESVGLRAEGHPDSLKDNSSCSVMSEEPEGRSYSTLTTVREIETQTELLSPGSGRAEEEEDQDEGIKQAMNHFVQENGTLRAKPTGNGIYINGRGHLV


Key:
[1] = target: T1, recombinant purified human Nectin-4-Fc …; experiment: BLI (Octet), Nectin-4-Fc on anti-human Fc sensors, run 1
[2] = target: T1, recombinant purified human Nectin-4-Fc …; experiment: BLI (Octet), Nectin-4-Fc on anti-human Fc sensors, run 2
mouse Nectin-4 [3] = target: T2, mouse Nectin-4; experiment: cell-based ELISA on CHO-K1 cells expressing mouse Nectin-4
[4] = target: T3, cynomolgus monkey Nectin-4; experiment: cell-based ELISA on CHO-K1 cells expressing cynomolgus monkey Nectin-4
[5] = target: T4, human Nectin-4 (on cells); experiment: flow cytometry on A431 cells (endogenous Nectin-4)
[6] = target: T4, human Nectin-4 (on cells); experiment: flow cytometry on BeWo cells (endogenous Nectin-4)
[7] = target: T1, recombinant purified human Nectin-4-Fc …; experiment: BLI (Octet), Nectin-4-Fc on anti-human Fc sensors, run 1; remark: listed apart in the source
[8] = target: T4, human Nectin-4 (on cells); experiment: flow cytometry on HT-29 cells (endogenous Nectin-4)
[9] = target: T1, recombinant purified human Nectin-4-Fc …; experiment: BLI (Octet), Nectin-4-Fc on anti-human Fc sensors, run 2; remark: listed apart in the source
mouse Nectin-4 [10] = target: T2, mouse Nectin-4; experiment: cell-based ELISA on transfected CHO-K1 cells

| Binder | Kd [1] | koff [1] | kon [1] | Kd [2] | koff [2] | kon [2] | binding result (mouse Nectin-4 [3]) | binding result [4] | EC50 [5] | EC50 [6] | Kd [7] | EC50 [8] | Kd [9] | binding result (mouse Nectin-4 [10]) |
| --- | --- | --- | --- | --- | --- | --- | --- | --- | --- | --- | --- | --- | --- | --- |
| LV1184xVδ2 (bispecific antibody, Orientation N-term-anti-Nectin-4 VHH-linker-anti-Vδ2 VHH (5C8); no Fc; also called Nectin-4xVδ2 bispecific VHH) EVQLVESGGGLVQAGGSLRLSCAASGSISSINLMGWFRQAPAKQRELVTSISPGGSVRYADSVKGRFTISRDVAKNTVDLQMNSLKPEDTAVYYCAAESERTYYFDSWGQGTQVTVSSGGGGSEVQLVESGGGLVQAGGSLRLSCAASGRPFSNYAMGWFRQAPGKEREFVAAISWSGGSTSYADSVKGRFTISRDNAKNTVYLQMNSPKPEDTAIYYCAAQFSGADYGFGRLGIRGYEYDYWGQGTQVTVSS | 0.07 nM | 6.33e-05 s⁻¹ | 973000 M⁻¹ s⁻¹ | 0.18 nM | 0.000149 s⁻¹ | 844000 M⁻¹ s⁻¹ |  |  |  |  |  |  |  |  |
| LV1181 (VHH, Llama-derived anti-Nectin-4 VHH) VHH: EVQLVESGGGLVQAGGSLRLSCAASGSISSINLMGWHRQAPGKQRELVATITRGGSTNYADSVKGRFTISRDNGKNTVYLQMNSLKPEDTAAYYCVDVEPSGMGWRDYWGQGTQVTVSS |  |  |  |  |  |  | binds | binds | 0.33 nM | 0.4 nM | 0.8 nM | 1.5 nM | 0.76 nM |  |
| LV1187 (VHH, Llama-derived anti-Nectin-4 VHH) VHH: EVQLVESGGGLVQAGGFLRLSCAASRSVFRINVMGWYRQAPGKQRELVAGITSGGSRRLADSVKGRFTISRDNAKNTVYLQMNSLKPEDTAVYYCFAEAVVGDEPYWGQGTQVTVSS |  |  |  |  |  |  | binds | binds |  |  | 5.2 nM |  | 6.09 nM |  |
| LV1185xVδ2 (bispecific antibody, Orientation N-term-anti-Nectin-4 VHH-linker-anti-Vδ2 VHH (5C8); no Fc; also called Nectin-4xVδ2 bispecific VHH) EVQLVESGGGLVQAGGSLRLSCAASRSTFSLNIMGWYRQAPGKQREYVATITTGGSTNYADSVRGRFTISRDNAEDTVYLQMNSLKPEDTAVYYCTAELVRRGPTTYWGRGTQVTVSSGGGGSEVQLVESGGGLVQAGGSLRLSCAASGRPFSNYAMGWFRQAPGKEREFVAAISWSGGSTSYADSVKGRFTISRDNAKNTVYLQMNSPKPEDTAIYYCAAQFSGADYGFGRLGIRGYEYDYWGQGTQVTVSS | 2 nM | 0.00127 s⁻¹ | 642000 M⁻¹ s⁻¹ | 2.4 nM | 0.00144 s⁻¹ | 593000 M⁻¹ s⁻¹ |  |  |  |  |  |  |  |  |
| LV1186xVδ2 (bispecific antibody, Orientation N-term-anti-Nectin-4 VHH-linker-anti-Vδ2 VHH (5C8); no Fc; also called Nectin-4xVδ2 bispecific VHH) EVQLVESGGGLVQAGGSLRLSCAASRSTFSLNIMGWYRQAPGKQREYVATITSGGSTNYADSVRGRFTISRDNAENTVYLQMDSLKPEDTAVYYCTAELVRRGPTTYWGRGTQVTVSSGGGGSEVQLVESGGGLVQAGGSLRLSCAASGRPFSNYAMGWFRQAPGKEREFVAAISWSGGSTSYADSVKGRFTISRDNAKNTVYLQMNSPKPEDTAIYYCAAQFSGADYGFGRLGIRGYEYDYWGQGTQVTVSS | 2.3 nM | 0.00165 s⁻¹ | 731000 M⁻¹ s⁻¹ | 2.6 nM | 0.0017 s⁻¹ | 660000 M⁻¹ s⁻¹ |  |  |  |  |  |  |  |  |
| LV1178 (VHH, Llama-derived anti-Nectin-4 VHH from phage display) VHH: EVQLVESGGALVQAGGSLRLSCSVSGLTASRLTMGWFRQAPGKEREFVARVYASGGLTDYADSVKGRFTISRDNAKNTVYLQMNSLEPEDTAVYYCVAGLWADMRTMTSTRGYWGQGTQVTVSS |  |  |  |  |  |  |  | binds |  |  |  |  | 8.02 nM | no binding (tested: 0.032 to 500 nM) |
| LV1181xVδ2 (bispecific antibody, Orientation N-term-anti-Nectin-4 VHH-linker-anti-Vδ2 VHH (5C8); no Fc; also called Nectin-4xVδ2 bispecific VHH) EVQLVESGGGLVQAGGSLRLSCAASGSISSINLMGWHRQAPGKQRELVATITRGGSTNYADSVKGRFTISRDNGKNTVYLQMNSLKPEDTAAYYCVDVEPSGMGWRDYWGQGTQVTVSSGGGGSEVQLVESGGGLVQAGGSLRLSCAASGRPFSNYAMGWFRQAPGKEREFVAAISWSGGSTSYADSVKGRFTISRDNAKNTVYLQMNSPKPEDTAIYYCAAQFSGADYGFGRLGIRGYEYDYWGQGTQVTVSS | 0.26 nM | 0.000266 s⁻¹ | 1.04e+06 M⁻¹ s⁻¹ | 0.37 nM | 0.0003 s⁻¹ | 818000 M⁻¹ s⁻¹ |  |  |  |  |  |  |  |  |
| LV1185 (VHH, Llama-derived anti-Nectin-4 VHH) VHH: EVQLVESGGGLVQAGGSLRLSCAASRSTFSLNIMGWYRQAPGKQREYVATITTGGSTNYADSVRGRFTISRDNAEDTVYLQMNSLKPEDTAVYYCTAELVRRGPTTYWGRGTQVTVSS |  |  |  |  |  |  | binds | binds |  |  | 3.61 nM |  | 2.34 nM |  |
| LV1186 (VHH, Llama-derived anti-Nectin-4 VHH) VHH: EVQLVESGGGLVQAGGSLRLSCAASRSTFSLNIMGWYRQAPGKQREYVATITSGGSTNYADSVRGRFTISRDNAENTVYLQMDSLKPEDTAVYYCTAELVRRGPTTYWGRGTQVTVSS |  |  |  |  |  |  | binds | binds |  |  | 3.93 nM |  | 3.94 nM |  |
| LV1183 (VHH, Llama-derived anti-Nectin-4 VHH) VHH: EVQLVESGGGLVQAGGSLRLSCAASGSIFDINLMGWYRQAPGKLRELVASITRGGSTWYVDSVKGRFIISRDSAKNTVYLQMNSLKPGDTAVYYCAAESIGSYTFDRWGQGTQVTVSS |  |  |  |  |  |  |  | binds |  |  | 5.7 nM |  | 7.98 nM | no binding (tested: 0.032 to 500 nM) |
| LV1184 (VHH, Llama-derived anti-Nectin-4 VHH) VHH: EVQLVESGGGLVQAGGSLRLSCAASGSISSINLMGWFRQAPAKQRELVTSISPGGSVRYADSVKGRFTISRDVAKNTVDLQMNSLKPEDTAVYYCAAESERTYYFDSWGQGTQVTVSS |  |  |  |  |  |  | binds | binds | 0.24 nM | 0.3 nM | 0.51 nM | 1.2 nM | 0.51 nM |  |
